Reference: the supplement of paper PMC9112550, “Optimization of the antimicrobial peptide Bac7 by deep mutational scanning” (BMC Biology, 2022)

Test system: Escherichia coli TOP10
Assay: shrunken log2 fold change of peptide-encoding DNA abundance (4.5 h post-induction vs induction); higher = less antimicrobial activity (less host growth inhibition)
Settings: time post-induction: 4.5 h; library: site-saturation at positions 5, 18, 19, 20
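Further: peptides expressed intracellularly from a pBAD plasmid library in pooled LB shake-flask culture, induced with 0.3% L-arabinose, DNA abundance read by NGS, three biological replicates, DESeq2 with apeglm shrinkage.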

Row | Sequence | shrunken log2 fold change
1 | RRIRWRPPRLPRPRPRPNFAPRP | 0.29
2 | RRIRARPPRLPRPRPRPMEAPRP | -0.047
3 | RRIRTRPPRLPRPRPRPRIFPRP | -0.158
4 | RRIRMRPPRLPRPRPRPHNWPRP | 0.249
5 | RRIRFRPPRLPRPRPRPWRQPRP | -0.103
6 | RRIRERPPRLPRPRPRPWWMPRP | -0.436
7 | RRIRWRPPRLPRPRPRPPIAPRP | 2.1
8 | RRIRQRPPRLPRPRPRPEKNPRP | 0.172
9 | RRIRTRPPRLPRPRPRPPSTPRP | 0.186
10 | RRIRDRPPRLPRPRPRPTRWPRP | 1.38
11 | RRIRPRPPRLPRPRPRPGGQPRP | -0.0466
12 | RRIRSRPPRLPRPRPRPRHNPRP | -0.324
13 | RRIRHRPPRLPRPRPRPRNDPRP | -0.0937
14 | RRIRTRPPRLPRPRPRPEVEPRP | 0.0992
15 | RRIRNRPPRLPRPRPRPHHQPRP | -1.12
16 | RRIRNRPPRLPRPRPRPGHKPRP | 0.0903
17 | RRIRVRPPRLPRPRPRPQHGPRP | 0.14
18 | RRIRNRPPRLPRPRPRPLRGPRP | 0.654
19 | RRIRVRPPRLPRPRPRPCWKPRP | -0.00912
20 | RRIRVRPPRLPRPRPRPSHYPRP | -0.68
21 | RRIRRRPPRLPRPRPRPQLCPRP | 0.559
22 | RRIRRRPPRLPRPRPRPYIQPRP | -0.603
23 | RRIRARPPRLPRPRPRPTLAPRP | 1.65
24 | RRIRKRPPRLPRPRPRPTMDPRP | 0.0288
25 | RRIRPRPPRLPRPRPRPYNWPRP | -0.731

Row | Sequence | shrunken log2 fold change
26 | RRIRWRPPRLPRPRPRPECQPRP | -0.0508
27 | RRIRFRPPRLPRPRPRPMIGPRP | 0.0266
28 | RRIRERPPRLPRPRPRPYYNPRP | -0.675
29 | RRIRSRPPRLPRPRPRPQRKPRP | 0.264
30 | RRIRFRPPRLPRPRPRPEKMPRP | 0.0434
31 | RRIRERPPRLPRPRPRPPYDPRP | -1.12
32 | RRIRPRPPRLPRPRPRPMCNPRP | -0.075
33 | RRIRIRPPRLPRPRPRPYALPRP | -0.0961
34 | RRIRSRPPRLPRPRPRPTKEPRP | -0.441
35 | RRIRDRPPRLPRPRPRPWMNPRP | -0.15
36 | RRIRRRPPRLPRPRPRPPTTPRP | 0.445
37 | RRIRARPPRLPRPRPRPCEMPRP | 0.345
38 | RRIRSRPPRLPRPRPRPQYAPRP | -0.282
39 | RRIRVRPPRLPRPRPRPRAAPRP | 0.425
40 | RRIRDRPPRLPRPRPRPGRHPRP | 0.186
41 | RRIRQRPPRLPRPRPRPMYDPRP | -0.0385
42 | RRIRFRPPRLPRPRPRPEYYPRP | -0.0413
43 | RRIRHRPPRLPRPRPRPWFHPRP | -0.525
44 | RRIRQRPPRLPRPRPRPCVDPRP | 0.148
45 | RRIRERPPRLPRPRPRPWVVPRP | -0.151
46 | RRIRHRPPRLPRPRPRPHQNPRP | -0.494
47 | RRIRFRPPRLPRPRPRPQDLPRP | -0.0337
48 | RRIRRRPPRLPRPRPRPNIWPRP | 0.134
49 | RRIRERPPRLPRPRPRPTIYPRP | 0.00607
50 | RRIRQRPPRLPRPRPRPDKRPRP | 0.00102

Row | Sequence | shrunken log2 fold change
51 | RRIRERPPRLPRPRPRPSLHPRP | -0.309
52 | RRIRHRPPRLPRPRPRPCCRPRP | -0.276
53 | RRIRRRPPRLPRPRPRPPYPPRP | 0.245
54 | RRIRERPPRLPRPRPRPCHKPRP | -0.154
55 | RRIRERPPRLPRPRPRPYECPRP | -0.0425
56 | RRIRVRPPRLPRPRPRPNRKPRP | -0.0231
57 | RRIRPRPPRLPRPRPRPCHKPRP | -0.0956
58 | RRIRRRPPRLPRPRPRPEMRPRP | 0.0735
59 | RRIRIRPPRLPRPRPRPRHYPRP | -0.177
60 | RRIRPRPPRLPRPRPRPQPCPRP | -0.0627
61 | RRIRLRPPRLPRPRPRPNPPPRP | 0.0837
62 | RRIRDRPPRLPRPRPRPQTEPRP | 0.125
63 | RRIRSRPPRLPRPRPRPIQIPRP | -0.0243
64 | RRIRYRPPRLPRPRPRPRWIPRP | -0.553
65 | RRIRMRPPRLPRPRPRPKRVPRP | 0.0291
66 | RRIRARPPRLPRPRPRPRARPRP | 0.911
67 | RRIRPRPPRLPRPRPRPIYYPRP | -0.323
68 | RRIRNRPPRLPRPRPRPLGTPRP | 0.135
69 | RRIRPRPPRLPRPRPRPGGAPRP | 0.47
70 | RRIRYRPPRLPRPRPRPCKNPRP | -1.05
71 | RRIRSRPPRLPRPRPRPRRRPRP | 0.312
72 | RRIRDRPPRLPRPRPRPVSFPRP | -0.191
73 | RRIRVRPPRLPRPRPRPYAGPRP | 0.0438
74 | RRIRLRPPRLPRPRPRPDEIPRP | -0.0542
75 | RRIRHRPPRLPRPRPRPKFHPRP | -0.429

Row | Sequence | shrunken log2 fold change
76 | RRIRERPPRLPRPRPRPGCLPRP | -0.017
77 | RRIRRRPPRLPRPRPRPVTHPRP | 0.598
78 | RRIRQRPPRLPRPRPRPFNLPRP | -0.649
79 | RRIRLRPPRLPRPRPRPNLTPRP | -0.299
80 | RRIRIRPPRLPRPRPRPAHVPRP | -0.0796
81 | RRIRCRPPRLPRPRPRPSGYPRP | -0.724
82 | RRIRFRPPRLPRPRPRPCQYPRP | -0.53
83 | RRIRQRPPRLPRPRPRPPENPRP | 0.0912
84 | RRIRDRPPRLPRPRPRPKFHPRP | -0.362
85 | RRIRYRPPRLPRPRPRPYSYPRP | -0.395
86 | RRIRHRPPRLPRPRPRPEDLPRP | 0.172
87 | RRIRYRPPRLPRPRPRPTGHPRP | 0.0155
88 | RRIRLRPPRLPRPRPRPNDFPRP | -0.0142
89 | RRIRIRPPRLPRPRPRPCPHPRP | -0.143
90 | RRIRGRPPRLPRPRPRPNRYPRP | 0.0443
91 | RRIRFRPPRLPRPRPRPGVRPRP | -0.118
92 | RRIRDRPPRLPRPRPRPLVNPRP | 0.426
93 | RRIRARPPRLPRPRPRPSQWPRP | 0.24
94 | RRIRKRPPRLPRPRPRPQKRPRP | 0.403
95 | RRIRDRPPRLPRPRPRPPMHPRP | 0.319
96 | RRIRNRPPRLPRPRPRPWFPPRP | -0.223
97 | RRIRHRPPRLPRPRPRPPMWPRP | 1.04
98 | RRIRERPPRLPRPRPRPMEGPRP | 0.00131
99 | RRIRWRPPRLPRPRPRPIAGPRP | 0.0596
100 | RRIRGRPPRLPRPRPRPNRGPRP | -0.0157

Row | Sequence | shrunken log2 fold change
101 | RRIRKRPPRLPRPRPRPWITPRP | -0.105
102 | RRIRDRPPRLPRPRPRPQWFPRP | 0.0117
103 | RRIRLRPPRLPRPRPRPCHNPRP | 0.0575
104 | RRIRFRPPRLPRPRPRPYPAPRP | -0.512
105 | RRIRQRPPRLPRPRPRPNMFPRP | 0.0369
106 | RRIRSRPPRLPRPRPRPVYNPRP | -0.974
107 | RRIRMRPPRLPRPRPRPAGDPRP | 0.882
108 | RRIRLRPPRLPRPRPRPETQPRP | 0.00473
109 | RRIRPRPPRLPRPRPRPCEFPRP | -0.0795
110 | RRIRLRPPRLPRPRPRPWNYPRP | -0.43
111 | RRIRCRPPRLPRPRPRPFLMPRP | -0.422
112 | RRIRTRPPRLPRPRPRPLGYPRP | -0.213
113 | RRIRERPPRLPRPRPRPWYSPRP | -0.798
114 | RRIRNRPPRLPRPRPRPQGHPRP | -0.296
115 | RRIRRRPPRLPRPRPRPQPMPRP | 0.606
116 | RRIRMRPPRLPRPRPRPFFTPRP | -0.054
117 | RRIRCRPPRLPRPRPRPTGFPRP | -0.135
118 | RRIRYRPPRLPRPRPRPREIPRP | -0.442
119 | RRIRPRPPRLPRPRPRPPCRPRP | 0.339
120 | RRIRDRPPRLPRPRPRPKHMPRP | -0.192
121 | RRIRARPPRLPRPRPRPGAWPRP | 0.259
122 | RRIRERPPRLPRPRPRPNTGPRP | -0.385
123 | RRIRTRPPRLPRPRPRPCTAPRP | -0.0896
124 | RRIRPRPPRLPRPRPRPVVRPRP | 0.116
125 | RRIRSRPPRLPRPRPRPDIWPRP | 0.00423
